Here are results for 1 sequence from PMC3082896.

This data set has as its system LdTOP1L/S large subunit (LdTOP1L);LdTOP1L/S small subunit (LdTOP1S) (Leishmania donovani;Leishmania donovani). Nature of the data set: EMSA. In general terms: Mobility shift assays separate free from complexed probe on a gel.

In turn, “GAAAAAAGACTTAGAAAAATTTTTA (double strand)” came in with a binding signal (% of input DNA bound) of 79.
